According to IntAct's records for PubMed 37100772:

B1: Nucleoprotein (Zaire ebolavirus (strain Mayinga-76)), P18272 (parent)
chain: MDSRPQKIWMAPSLTESDMDYHKILTAGLSVQQGIVRQRVIPVYQVNNLEEICQLIIQAFEAGVDFQESADSFLLMLCLHHAYQGDYKLFLESGAVKYLEGHGFRFEVKKRDGVKRLEELLPAVSSGKNIKRTLAAMPEEETTEANAGQFLSFASLFLPKLVVGEKACLEKVQRQIQVHAEQGLIQYPTAWQSVGHMMVIFRLMRTNFLIKFLLIHQGMHMVAGHDANDAVISNSVAQARFSGLLIVKTVLDHILQKTERGVRLHPLARTAKVKNEVNSFKAALSSLAKHGEYAPFARLLNLSGVNNLEHGLFPQLSAIALGVATAHGSTLAGVNVGEQYQQLREAATEAEKQLQQYAESRELDHLGLDDQEKKILMNFHQKKNEISFQQTNAMVTLRKERLAKLTEAITAASLPKTSGHYDDDDDIPFPGPINDDDNPGHQDDDPTDSQDTTIPDVVVDPDDGSYGEYQSYSENGMNAPDDLVLFDLDEDDEDTKPVPNRSTKGGQQKNSQKGQHIEGRQTQSRPIQNVPGPHRTIHHASAPLTDNDRRNEPSGSTSPRMLTPINEEADPLDDADDETSSLPPLESDDEEQDRDGTSNRTPTVAPPAPVYRDHSEKKELPQDEQQDQDHTQEARNQDSDNTQSEHSFEEMYRHILRSQGPFDAVLYYHMMKDEPVVFSTSDGKEYTYPDSLEEEYPPWLTEKEAMNEENRFVTLDGQQFYWPVMNHKNKFMAILQHHQ
partner: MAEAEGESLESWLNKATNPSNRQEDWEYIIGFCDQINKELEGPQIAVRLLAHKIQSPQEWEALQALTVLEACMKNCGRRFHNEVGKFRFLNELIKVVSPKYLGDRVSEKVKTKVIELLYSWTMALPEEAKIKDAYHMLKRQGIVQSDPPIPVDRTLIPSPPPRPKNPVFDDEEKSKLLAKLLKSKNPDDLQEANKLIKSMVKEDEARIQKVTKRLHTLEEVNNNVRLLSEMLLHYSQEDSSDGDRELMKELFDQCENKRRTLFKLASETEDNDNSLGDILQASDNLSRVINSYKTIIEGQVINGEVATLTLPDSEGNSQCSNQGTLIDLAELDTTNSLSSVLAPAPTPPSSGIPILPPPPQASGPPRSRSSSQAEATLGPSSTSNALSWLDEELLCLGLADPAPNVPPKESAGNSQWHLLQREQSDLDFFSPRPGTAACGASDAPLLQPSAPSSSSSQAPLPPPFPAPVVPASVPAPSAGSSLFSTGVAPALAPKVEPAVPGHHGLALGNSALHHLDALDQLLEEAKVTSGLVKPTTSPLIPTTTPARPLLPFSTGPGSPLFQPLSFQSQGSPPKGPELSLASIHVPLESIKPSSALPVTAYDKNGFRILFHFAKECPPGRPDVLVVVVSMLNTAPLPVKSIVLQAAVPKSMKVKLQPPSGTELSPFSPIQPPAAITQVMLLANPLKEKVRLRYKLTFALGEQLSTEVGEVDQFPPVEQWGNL
B2: Nucleoprotein (Zaire ebolavirus (strain Mayinga-76)), P18272 (parent)
chain: B1 chain

Variants of: B1
Details: with gga3_human GGA3, Q9NZ52

| Variant | effect of a mutation on the interaction |
| --- | --- |
| Y469A | disrupting interaction strength |

Variants of: B2
Details: with ap2m1_human AP2M1, Q96CW1
ap2m1_human AP2M1, Q96CW1, sequence (Q96CW1 whole entry): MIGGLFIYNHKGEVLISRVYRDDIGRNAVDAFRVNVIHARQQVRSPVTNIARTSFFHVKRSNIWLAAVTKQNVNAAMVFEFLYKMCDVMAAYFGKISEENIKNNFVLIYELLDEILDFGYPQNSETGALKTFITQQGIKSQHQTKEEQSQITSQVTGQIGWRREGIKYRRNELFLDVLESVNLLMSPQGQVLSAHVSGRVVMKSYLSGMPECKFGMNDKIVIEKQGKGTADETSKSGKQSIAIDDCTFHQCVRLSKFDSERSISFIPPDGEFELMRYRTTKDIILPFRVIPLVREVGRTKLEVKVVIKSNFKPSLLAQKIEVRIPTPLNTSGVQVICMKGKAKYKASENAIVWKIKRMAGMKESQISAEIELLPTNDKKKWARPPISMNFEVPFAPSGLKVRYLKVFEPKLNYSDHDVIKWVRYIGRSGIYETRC

| Variant | effect of a mutation on the interaction |
| --- | --- |
| Y340A;L343A | with no effect |
